Results reported in publication PMC4753521.

Columns and labels:
[1] = target: TFIIH p62 subunit PH domain, 1-108 (UniProt P32780); assay: real-time NMR of complex during CK2 reaction; conditions: reference: complex before CK2 addition; sites S129
[2] = target: TFIIH p62 subunit PH domain, 1-108 (UniProt P32780); assay: real-time NMR of complex during JNK2α2 reaction; conditions: reference: Thr55-phosphorylated complex before JNK2α2; sites S46
[3] = target: TFIIH p62 subunit PH domain, 1-108 (UniProt P32780); assay: real-time NMR of complex during GRK5 reaction; conditions: reference: complex before GRK5 addition; sites T55
[4] = target: TFIIH p62 PH (Homo sapiens) (UniProt P32780); assay: ITC; conditions: cited from earlier work
[5] = target: TFIIH p62 PH (Homo sapiens) (UniProt P32780); assay: ITC; conditions: cited from earlier work; remark: listed apart in the source
[6] = target: TFIIH p62 PH (Homo sapiens) (UniProt P32780); assay: ITC; conditions: cited from earlier work; remark: listed apart in the source

XPC AF, 109-156 (from UniProt Q01831) complex after CK2 reaction
binding against the reference [1]: stronger

p53 TAD, 1-73 (from UniProt P04637) same complex after JNK2α2 reaction
binding against the reference [2]: stronger

p53 TAD, 1-73 (from UniProt P04637) complex after GRK5 reaction
binding against the reference [3]: stronger

p53 TAD2 (from UniProt P04637)
Kd [4]: 5 µM
Kd [5]: 1 µM
Kd [6]: 6 µM
